Results published in article PMC7083938, “NELL2-Robo3 complex structure reveals mechanisms of receptor activation for axon guidance” (Nature Communications, 2020).
Residue numbers refer to the chain shown, from its start.

Assays:
Experiment in all cases: flow cytometry on cells; biotinylated ligand at various concentrations, 30 min at 4 °C in PBS + 0.1% BSA, on Drosophila S2 cells displaying the partner (C-terminal FLAG, rat Neurexin-1 transmembrane helix); Cy5-streptavidin; gated on anti-FLAG positive cells; MFI fit to a single-site model; apparent KD
Conditions in all cases: one partner purified
[1] = molecular target: T1, hRobo3 FN1-3 T604A, biotinylated (human, UniProt Q96MS0 549-870, T604A, biotin on the Avi-tag (BirA))
T1 construct: human Robo3, FN domains 1-3, P549-L870; source: High Five cells (baculovirus), purified, biotinylated with BirA (general methods)
T1 sequence (looked up): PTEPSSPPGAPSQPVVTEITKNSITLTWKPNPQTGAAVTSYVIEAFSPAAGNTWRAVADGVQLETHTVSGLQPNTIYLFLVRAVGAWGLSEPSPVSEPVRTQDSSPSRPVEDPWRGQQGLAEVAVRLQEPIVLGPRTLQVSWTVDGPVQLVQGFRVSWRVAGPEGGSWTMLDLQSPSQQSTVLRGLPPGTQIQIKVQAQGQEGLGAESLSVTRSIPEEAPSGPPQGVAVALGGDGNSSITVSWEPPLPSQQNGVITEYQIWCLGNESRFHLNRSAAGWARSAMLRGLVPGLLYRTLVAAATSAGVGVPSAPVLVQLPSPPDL

[2] = molecular target: T2, hRobo3 FN1-3 N600A/T601A, biotinylated (human, UniProt Q96MS0 549-870, N600A | T601A, biotin on the Avi-tag (BirA))
T2 construct: human Robo3, FN domains 1-3, P549-L870; source: High Five cells (baculovirus), purified, biotinylated with BirA (general methods)
T2 sequence (looked up): T1 sequence (looked up) with N52A, T53A, A56T

[3] = molecular target: T3, hRobo3 FN1-3, biotinylated (wild type) (human, UniProt Q96MS0 549-870, biotin on the Avi-tag (BirA))
T3 construct: human Robo3, FN domains 1-3, P549-L870; also called WT hRobo3 FN; Robo3FN1-3 WT; source: High Five cells (baculovirus), purified (Ni-NTA, SEC), biotinylated with BirA
T3 sequence (looked up): T1 sequence (looked up) with A56T

Kd [1]: 7.9 µM
Kd [2]: 2.9 µM
Kd [3]: 0.89 µM
B1: hNELL2 EGF1-6 displayed on S2 cells (domain or fragment)
chain: not shown
notes: human NELL2, EGF domains 1-6, G397-T637; also called NELL2EGF1-6 WT (Actin 5C, C-terminal FLAG); FLAG-tagged NELL2 EGF1-6; source: Drosophila S2 cells, transiently transfected, on the cell surface; not shown: FLAG, C-terminal, kept; transmembrane helix of rat Neurexin-1, C-terminal, kept
